Molecular target: human Rab7 Q67L (residues 2–195), GTP-loaded (human) (UniProt P51149)
Assay: crystal structure; purified PDZD8 CC and Rab7 Q67L (1 mM GTP) mixed 1:1 at total 10 mg/ml, incubated 1 h at room temperature; crystals in 0.1 M Tris-HCl pH 8.0, 25% PEG 1000, 0.1 M NaCl; space group P6(5), 2.1 Å

Sequence of human Rab7 Q67L (residues 2–195), GTP-loaded (human) (P51149 2-195 Q67L): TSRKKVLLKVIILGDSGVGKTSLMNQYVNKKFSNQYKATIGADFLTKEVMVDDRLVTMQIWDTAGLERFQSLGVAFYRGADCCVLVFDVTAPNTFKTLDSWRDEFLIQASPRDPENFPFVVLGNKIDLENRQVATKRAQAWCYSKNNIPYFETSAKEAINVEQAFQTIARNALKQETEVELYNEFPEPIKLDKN
Sequence of human PDZD8 C-terminal coiled-coil (CC) domain, residues 994–1123 (crystallisation construct) (Q8NEN9 994-1123): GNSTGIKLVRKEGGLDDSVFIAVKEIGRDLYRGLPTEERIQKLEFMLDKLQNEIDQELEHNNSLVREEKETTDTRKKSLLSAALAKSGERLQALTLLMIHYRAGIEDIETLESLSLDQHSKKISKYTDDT

stoichiometry N (Rab7 per PDZD8 CC): 2
Substance: human PDZD8 C-terminal coiled-coil (CC) domain, residues 994–1123 (crystallisation construct) (from UniProt Q8NEN9 994-1123) (domain or fragment)

From publication PMC8458453
